B1: Retinal rod rhodopsin-sensitive cGMP 3',5'-cyclic phosphodiesterase subunit gamma (Homo sapiens), P18545 (parent)
chain: MNLEPPKAEFRSATRVAGGPVTPRKGPPKFKQRQTRQFKSKPPKKGVQGFGDDIPGMEGLGTDITVICPWEAFNHLELHELAQYGII
B2: Retinal rod rhodopsin-sensitive cGMP 3',5'-cyclic phosphodiesterase subunit gamma (Homo sapiens), P18545 (parent)
chain: B1 chain
partner: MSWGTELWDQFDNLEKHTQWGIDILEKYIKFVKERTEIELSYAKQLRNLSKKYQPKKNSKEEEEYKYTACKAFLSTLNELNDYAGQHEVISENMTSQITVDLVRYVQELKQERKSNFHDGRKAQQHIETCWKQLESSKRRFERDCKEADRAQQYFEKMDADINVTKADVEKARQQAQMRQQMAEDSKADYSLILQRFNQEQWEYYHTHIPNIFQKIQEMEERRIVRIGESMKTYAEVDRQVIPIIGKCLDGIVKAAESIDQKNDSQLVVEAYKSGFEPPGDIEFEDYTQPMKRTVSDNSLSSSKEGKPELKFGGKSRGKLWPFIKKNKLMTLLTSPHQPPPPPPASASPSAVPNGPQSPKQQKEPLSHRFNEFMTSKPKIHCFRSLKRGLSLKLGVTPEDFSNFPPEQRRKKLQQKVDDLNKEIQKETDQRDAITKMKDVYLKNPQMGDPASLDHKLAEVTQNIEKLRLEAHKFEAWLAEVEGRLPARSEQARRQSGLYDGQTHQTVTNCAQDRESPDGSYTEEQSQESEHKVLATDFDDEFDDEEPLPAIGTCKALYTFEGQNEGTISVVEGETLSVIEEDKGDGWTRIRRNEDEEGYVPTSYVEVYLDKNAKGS

Legend:
[1] = variants of: B1; details: with pacn2_rat Pacsin2, Q9QY17
grb2_rat Grb2, P62994 = variants of: B1; details: with grb2_rat Grb2, P62994
src_rat Src, Q9WUD9 = variants of: B1; details: with src_rat Src
fnbp1_rat Fnbp1, Q8R511 = variants of: B2; details: with fnbp1_rat Fnbp1, Q8R511

effect of a mutation on the interaction [1] | effect of a mutation on the interaction (grb2_rat Grb2, P62994) | effect of a mutation on the interaction (src_rat Src, Q9WUD9) | effect of a mutation on the interaction (fnbp1_rat Fnbp1, Q8R511) | Variant
decreasing interaction | decreasing interaction | disrupting interaction |  | MNLEPPKAEFRSATRVAGGPVTARKGPPKFKQRQTRQFKSKPPKKGVQGFGDDIPGMEGLGTDITVICPWEAFNHLELHELAQYGII [P23A]
decreasing interaction | decreasing interaction | disrupting interaction |  | MNLEPPKAEFRSATRVAGGAVTPRKGPPKFKQRQTRQFKSKPPKKGVQGFGDDIPGMEGLGTDITVICPWEAFNHLELHELAQYGII [P20A]
 |  |  | disrupting interaction | MNLEPPKAEFRSATRVAGGPVTARKGPPKFKQRQTRQFKSKPPKKGVQGFGDDIPGMEGLGTDITVICPWEAFNHLELHELAQYGII [P23A]
 |  |  | disrupting interaction | MNLEPPKAEFRSATRVAGGAVTPRKGPPKFKQRQTRQFKSKPPKKGVQGFGDDIPGMEGLGTDITVICPWEAFNHLELHELAQYGII [P20A]

— IntAct's records for PubMed 16357825
